The source of these data is patent US20230407373A1 (priority 2020, published 2023).

Holding throughout (format): binding
The test system of test [1] is gRNA of HCoV-OC43. Particulars: for target (spectral count, OC43 Probe I RNP capture) / background (spectral count, no-probe control): type n_48_v: 48 hours post-infection; for target (spectral count, OC43 Probe I RNP capture): infected cells, unweighted spectral count; for background (spectral count, no-probe control): no-probe control on infected cells; for target (spectral count) / background (spectral count): type g_36_m, 36 hpi, Probe I; for target (spectral count): HCoV-OC43-infected HCT-8 cells; for background (spectral count): uninfected-probe control.

Test [2] concerns HCoV-OC43 gRNA and sgRNA. Particulars: for target (unweighted spectral count): OC43 Probe II, infected cells; for target (unweighted spectral count) / target (unweighted spectral count, OC43 Probe II capture): tested against no-probe control; for target (unweighted spectral count, OC43 Probe II) / background (unweighted spectral count, no-probe control): type n_48_v, 48 hpi; for target (unweighted spectral count, OC43 Probe II): OC43 Probe II capture on infected cells; for background (unweighted spectral count, no-probe control): no-probe control on infected cells; for target (unweighted spectral count, OC43 Probe II capture): FDR<10%.

The test system of test [3] is SARS-CoV-2 gRNA. To be noted: for target (unweighted spectral count of the protein in the RNP capture): LC-MS/MS, Probe I sample (first 199 lines of Table 2); for target (unweighted spectral count in RNP capture): Probe I capture, LC-MS/MS LFQ; for background (unweighted spectral count in control): no-probe control pull-down, used as background for Probe I.
In test [4] the test system is SARS-CoV-2 gRNA and sgRNAs. To be noted: for target (unweighted spectral count in RNP capture): Probe II capture, LC-MS/MS LFQ; for background (unweighted spectral count in control): no-probe control pull-down, used as background for Probe II.

Read-outs that look alike come from different tables or passages of the source.

B1: HNRNPD (protein, UniProt Q14103 2-355, looked up)
Heterogeneous nuclear …: SEEQFGGDGAAAAATAAVGGSAGEQEGAMVAATQGAAAAAGSGAGTGGGTASGGTEGGSAESEGAKIDASKNEEDEGHSNSSPRHSEAATAQREEWKMFIGGLSWDTTKKDLKDYFSKFGEVVDCTLKLDPITGRSRGFGFVLFKESESVDKVMDQKEHKLNGKVIDPKRAKAMKTKEPVKKIFVGGLSPDTPEEKIREYFGGFGEVESIELPMDNKTNKRRGFCFITFKEEEPVKKIMEKKYHNVGLSKCEIKVAMSKEQYQQQQQWGSRGGFAGRARGRGGGPSQNWNQGYSNYWNQGYGNYGYNSQGYGGYGGYDYTGYNNYYGYGDYSNQQSGYGKVSRRGGHQNSYKPY
As for B1, in test [1], the “target (spectral count, OC43 Probe I RNP capture)” value was 26 and the “background (spectral count, no-probe control)” value was 2. Further, the “target (unweighted spectral count)” value in test [2] (24 hpi (type n_24_v)) amounted to 17. Also, in test [2], the “target (unweighted spectral count, OC43 Probe II)” value is listed as 36 and the “background (unweighted spectral count, no-probe control)” value is reported as 2. For the same molecule, in test [3], the “target (unweighted spectral count of the protein in the RNP capture)” value worked out at 37.

B2: DDX3Y (protein, UniProt O15523 2-660, looked up)
ATP-dependent RNA helicase …: SHVVVKNDPELDQQLANLDLNSEKQSGGASTASKGRYIPPHLRNREASKGFHDKDSSGWSCSKDKDAYSSFGSRDSRGKPGYFSERGSGSRGRFDDRGRSDYDGIGNRERPGFGRFERSGHSRWCDKSVEDDWSKPLPPSERLEQELFSGGNTGINFEKYDDIPVEATGSNCPPHIENFSDIDMGEIIMGNIELTRYTRPTPVQKHAIPIIKGKRDLMACAQTGSGKTAAFLLPILSQIYTDGPGEALKAVKENGRYGRRKQYPISLVLAPTRELAVQIYEEARKFSYRSRVRPCVVYGGADIGQQIRDLERGCHLLVATPGRLVDMMERGKIGLDFCKYLVLDEADRMLDMGFEPQIRRIVEQDTMPPKGVRHTMMFSATFPKEIQMLARDFLDEYIFLAVGRVGSTSENITQKVVWVEDLDKRSFLLDILGATGSDSLTLVFVETKKGADSLEDFLYHEGYACTSIHGDRSQRDREEALHQFRSGKSPILVATAVAARGLDISNVRHVINFDLPSDIEEYVHRIGRTGRVGNLGLATSFFNEKNMNITKDLLDLLVEAKQEVPSWLENMAYEHHYKGGSRGRSKSNRFSGGFGARDYRQSSGSSSSGFGASRGSSSRSGGGGYGNSRGFGGGGYGGFYNSDGYGGNYNSQGVDWWGN
For B2, in test [4], the “target (unweighted spectral count in RNP capture)” value is 27 and the “background (unweighted spectral count in control)” value was 1. Also, the “target (unweighted spectral count of the protein in the RNP capture)” value in test [3] was 8.

B3: HNRNPR (protein, UniProt O43390 2-633, looked up)
Heterogeneous nuclear …: ANQVNGNAVQLKEEEEPMDTSSVTHTEHYKTLIEAGLPQKVAERLDEIFQTGLVAYVDLDERAIDALREFNEEGALSVLQQFKESDLSHVQNKSAFLCGVMKTYRQREKQGSKVQESTKGPDEAKIKALLERTGYTLDVTTGQRKYGGPPPDSVYSGVQPGIGTEVFVGKIPRDLYEDELVPLFEKAGPIWDLRLMMDPLSGQNRGYAFITFCGKEAAQEAVKLCDSYEIRPGKHLGVCISVANNRLFVGSIPKNKTKENILEEFSKVTEGLVDVILYHQPDDKKKNRGFCFLEYEDHKSAAQARRRLMSGKVKVWGNVVTVEWADPVEEPDPEVMAKVKVLFVRNLATTVTEEILEKSFSEFGKLERVKKLKDYAFVHFEDRGAAVKAMDEMNGKEIEGEEIEIVLAKPPDKKRKERQAARQASRSTAYEDYYYHPPPRMPPPIRGRGRGGGRGGYGYPPDYYGYEDYYDDYYGYDYHDYRGGYEDPYYGYDDGYAVRGRGGGRGGRGAPPPPRGRGAPPPRGRAGYSQRGAPLGPPRGSRGGRGGPAQQQRGRGSRGSRGNRGGNVGGKRKADGYNQPDSKRRQTNNQQNWGSQPIAQQPLQQGGDYSGNYGYNNDNQEFYQDTYGQQWK
In the case of B3, in test [1], the “target (spectral count, OC43 Probe I RNP capture)” value turned out to be 63 and the “background (spectral count, no-probe control)” value is on record as 4. Also, in test [2] (36 hpi, type n_36_v), the “target (unweighted spectral count, OC43 Probe II capture)” value stood at 52. Besides, the “target (unweighted spectral count)” value in test [2] (12 hpi (type n_12_v)) was 13. The “target (unweighted spectral count)” value in test [2] (24 hpi (type n_24_v)) came to 24. In test [2], the “target (unweighted spectral count, OC43 Probe II)” value came out at 76 and the “background (unweighted spectral count, no-probe control)” value is on record as 4. Moreover, the “target (unweighted spectral count of the protein in the RNP capture)” value in test [3] is 32.

B4: G3BP2: host protein of the core SARS-CoV-2 RNA interactome (protein, UniProt Q9UN86 2-482, looked up)
Ras GTPase-activating …: VMEKPSPLLVGREFVRQYYTLLNKAPEYLHRFYGRNSSYVHGGVDASGKPQEAVYGQNDIHHKVLSLNFSECHTKIRHVDAHATLSDGVVVQVMGLLSNSGQPERKFMQTFVLAPEGSVPNKFYVHNDMFRYEDEVFGDSEPELDEESEDEVEEEQEERQPSPEPVQENANSGYYEAHPVTNGIEEPLEESSHEPEPEPESETKTEELKPQVEEKNLEELEEKSTTPPPAEPVSLPQEPPKAFSWASVTSKNLPPSGTVSSSGIPPHVKAPVSQPRVEAKPEVQSQPPRVREQRPRERPGFPPRGPRPGRGDMEQNDSDNRRIIRYPDSHQLFVGNLPHDIDENELKEFFMSFGNVVELRINTKGVGGKLPNFGFVVFDDSEPVQRILIAKPIMFRGEVRLNVEEKKTRAARERETRGGGDDRRDIRRNDRGPGGPRGIVGGGMMRDRDGRGPPPRGGMAQKLGSGRGTGQMEGRFTGQRR
For B4, in test [4], the “enrichment in SARS-CoV-2 Probe II RNP capture” value was “enriched” and the “background (unweighted spectral count in control)” value turned out to be 1. In addition, in test [3], the “enrichment in SARS-CoV-2 Probe I RNP capture” value is “enriched” and the “target (unweighted spectral count of the protein in the RNP capture)” value is listed as 25.

B5: HNRNPUL1: host protein, UniProt Q9BU32 (protein, UniProt Q9BUJ2 1-856, looked up)
Heterogeneous nuclear …: MDVRRLKVNELREELQRRGLDTRGLKAELAERLQAALEAEEPDDERELDADDEPGRPGHINEEVETEGGSELEGTAQPPPPGLQPHAEPGGYSGPDGHYAMDNITRQNQFYDTQVIKQENESGYERRPLEMEQQQAYRPEMKTEMKQGAPTSFLPPEASQLKPDRQQFQSRKRPYEENRGRGYFEHREDRRGRSPQPPAEEDEDDFDDTLVAIDTYNCDLHFKVARDRSSGYPLTIEGFAYLWSGARASYGVRRGRVCFEMKINEEISVKHLPSTEPDPHVVRIGWSLDSCSTQLGEEPFSYGYGGTGKKSTNSRFENYGDKFAENDVIGCFADFECGNDVELSFTKNGKWMGIAFRIQKEALGGQALYPHVLVKNCAVEFNFGQRAEPYCSVLPGFTFIQHLPLSERIRGTVGPKSKAECEILMMVGLPAAGKTTWAIKHAASNPSKKYNILGTNAIMDKMRVMGLRRQRNYAGRWDVLIQQATQCLNRLIQIAARKKRNYILDQTNVYGSAQRRKMRPFEGFQRKAIVICPTDEDLKDRTIKRTDEEGKDVPDHAVLEMKANFTLPDVGDFLDEVLFIELQREEADKLVRQYNEEGRKAGPPPEKRFDNRGGGGFRGRGGGGGFQRYENRGPPGGNRGGFQNRGGGSGGGGNYRGGFNRSGGGGYSQNRWGNNNRDNNNSNNRGSYNRAPQQQPPPQQPPPPQPPPQQPPPPPSYSPARNPPGASTYNKNSNIPGSSANTSTPTVSSYSPPQPSYSQPPYNQGGYSQGYTAPPPPPPPPPAYNYGSYGGYNPAPYTPPPPPTAQTYPQPSYNQYQQYAQQWNQYYQNQGQWPPYYGNYDYGSYSGNTQGGTSTQ
For the molecule B5, in test [1], the “target (spectral count)” value came out at 13; the “background (spectral count)” value was found to be 2; the “target (spectral count, OC43 Probe I RNP capture)” value is reported as 11; the “background (spectral count, no-probe control)” value is 1. The “target (unweighted spectral count)” value in test [2] (12 hpi (type n_12_v)) is reported as 4. In addition, the “target (unweighted spectral count)” value in test [2] (24 hpi (type n_24_v)) is given as 8. In test [2], the “target (unweighted spectral count, OC43 Probe II)” value was determined as 11 and the “background (unweighted spectral count, no-probe control)” value was determined as 1. In test [3], the “target (unweighted spectral count in RNP capture)” value stood at 5 and the “background (unweighted spectral count in control)” value stood at 1.

B6: SRSF5: host protein, UniProt Q13243 (protein, UniProt Q13243 1-272, looked up)
Serine/arginine-rich splicing …: MSGCRVFIGRLNPAAREKDVERFFKGYGRIRDIDLKRGFGFVEFEDPRDADDAVYELDGKELCSERVTIEHARARSRGGRGRGRYSDRFSSRRPRNDRRNAPPVRTENRLIVENLSSRVSWQDLKDFMRQAGEVTFADAHRPKLNEGVVEFASYGDLKNAIEKLSGKEINGRKIKLIEGSKRHSRSRSRSRSRTRSSSRSRSRSRSRSRKSYSRSRSRSRSRSRSKSRSVSRSPVPEKSQKRGSSSRSKSPASVDRQRSRSRSRSRSVDSGN
For B6, in test [1], the “target (spectral count)” value is 8 and the “background (spectral count)” value was found to be 1. Further, in test [2] (24 hpi, type n_24_v), the “target (unweighted spectral count, OC43 Probe II capture)” value came out at 4. Besides, the “target (unweighted spectral count, OC43 Probe II capture)” value in test [2] (36 hpi, type n_36_v) turned out to be 10. Also, in test [2], the “target (unweighted spectral count, OC43 Probe II)” value was 12 and the “background (unweighted spectral count, no-probe control)” value came to 2. In test [3], the “target (unweighted spectral count in RNP capture)” value is on record as 5 and the “background (unweighted spectral count in control)” value is 1.

B7: RBMS1 (protein, UniProt P29558 1-406, looked up)
RNA-binding motif, …: MGKVWKQQMYPQYATYYYPQYLQAKQSLVPAHPMAPPSPSTTSSNNNSSSSSNSGWDQLSKTNLYIRGLPPHTTDQDLVKLCQPYGKIVSTKAILDKTTNKCKGYGFVDFDSPAAAQKAVSALKASGVQAQMAKQQEQDPTNLYISNLPLSMDEQELENMLKPFGQVISTRILRDSSGTSRGVGFARMESTEKCEAVIGHFNGKFIKTPPGVSAPTEPLLCKFADGGQKKRQNPNKYIPNGRPWHREGEVRLAGMTLTYDPTTAAIQNGFYPSPYSIATNRMITQTSITPYIASPVSAYQVQSPSWMQPQPYILQHPGAVLTPSMEHTMSLQPASMISPLAQQMSHLSLGSTGTYMPATSAMQGAYLPQYAHMQTTAVPVEEASGQQQVAVETSNDHSPYTFQPNK
Turning to B7, in test [4], the “target (unweighted spectral count in RNP capture)” value is listed as 15 and the “background (unweighted spectral count in control)” value is 1. Further, the “target (unweighted spectral count of the protein in the RNP capture)” value in test [3] is on record as 11.
